# Results reported in patent US20120177632A1, “METHODS OF OPTIMIZING DISEASE TREATMENT” (priority 2011, published 2012).
# B1: rIFNβ: recombinant mouse IFN-β (protein, UniProt P01575 22-182, looked up)
# Interferon beta: INYKQLQLQERTNIRKCQELLEQLNGKINLTYRADFKIPMEMTEKMQKSYTAFAIQEMLQNVFLVFRNNFSSTGWNETIVVRLLDELHQQTVFLKTVLEEKQEERLTWEMSSTALHLKSYYWRVQRYLKLMKYNSYAWMVVRAEIFRNFLIIRRLTRNFQN
# What was measured:
# [1] = test system: NADPH oxidase; test: p47phox foci (active NADPH oxidase) in bone marrow-derived macrophages, confocal microscopy; format: cell-based, mouse; conditions: WT BMMs; 1,000 units/ml 24 h pretreatment, then 5 mM ATP 1 h
# [2] = test system: GTP-Rac1; test: GTP-Rac1 level in bone marrow-derived macrophages (western blot); format: cell-based, mouse; conditions: WT BMMs; 1,000 units/ml 24 h pretreatment, then 5 mM ATP 5, 10 or 15 min
# Protocol: Bone marrow-derived macrophages obtained from wild-type mice were pretreated with 1,000 units/ml rIFNα or IFNβ for 24 hours before treatment with 5 mM ATP for 5, 10, or 15 minutes. Cells were then lysed, and total GTP-Rac1 was compared to GTP-Rac1 by western blot first using an antibody specific for GTP-Rac1, followed by membrane stripping and probing with an antibody recognizing total Rac1. GTP-Rac1 signal densitometry for each sample was normalized to total Rac1 using NIH Image/Image J software.
# [3] = test system: gp91^phox; test: gp91phox mRNA in bone marrow-derived macrophages (qRT-PCR); format: cell-based, mouse; conditions: WT BMMs; 1,000 units/ml, 24 h
# Protocol: Nlrp3, Asc, Casp1 and Txnip mRNA expression were evaluated by qRT-PCR. Bone marrow-derived macrophages from wild-type and Ifnar1^−/− mice were incubated with or without 100 ng/ml Ultrapure LPS for 3 hours, and the mRNA expression for each gene was measured by RT-PCR using standard techniques, showing no significant differences between the samples. Similarly, cell surface expression of ATP receptor P2X7R and CD39 (nucleoside triphosphate diphosphohydrolase 1), an ectonucleotidase that hydrolyzes extracellular ATP, on wild-type and Ifnar1^−/− macrophages were determined to be equivalent by flow cytometry using standard techniques. […] Wild-type bone marrow-derived macrophages were incubated with or without 1,000 units/ml rIFNβ for 24 hours before determining levels of gp91^phox mRNA in the total RNA by qRT-PCR using standard techniques. […] DQ ovalbumin staining locates lysosomes. The proportion of cells with DQ ovalbumin leakage to cytoplasm due to ruptured lysosomes was evaluated by incubating wild-type and Ifnar1^−/− macrophages with DQ ovalbumin (10 μg/ml) alone or a combination of DQ ovalbumin (10 μg/ml) and Alum (250 μg/ml) for 1 hour. Wild-type cells were also measured with and without exposure to rIFNα.
# [4] = test system: mitochondrial ROS; test: ATP-induced mitochondrial ROS generation in macrophages (MITOSOX Red, flow cytometry); format: cell-based; conditions: 1,000 units/ml added 24 hr prior to 5 mM ATP for 30 min
# Protocol: This example assessed whether ROS generated by the mitochondria may play a role in NLRP3 inflammasome activation. We tested whether IFNβ suppresses ROS generated by mitochondria with MITOSOX™ Red (Invitrogen™). A time course of ATP-induced mitochondrial ROS generation in macrophages was generated using macrophages incubated with 5 mM ATP for the time indicated in FIG. 12A. Macrophages were incubated with 5 mM ATP for indicated time at 37° C. in complete RPMI medium. ROS activity increase was calculated as mean fluorescence intensity value increase (percent) of MITOSOX™ RED staining by flow cytometry. An increase of mean fluorescent intensity (MFI) of the MITOSOX™ staining is shown in FIG. 12(A, B) as the reference point of MFI at time=0 (i.e., no ATP treatment). The ROS activity increase was calculated as mean fluorescence intensity value increase (percent) of MITOSOX™ Red staining by flow cytometry (FIG. 12A).
# Suppression of mitochondrial ROS generation by type-1 IFNs was examined. Cells were incubated with 5 mM ATP for 30 min rIFNα or rIFNβ (1,000 units/mL) was added 24 hr prior to the ATP treatment. […]
molecule,measurement,setting,value
B1,formation of p47phox foci,[1],inhibited the formation of p47^phox foci
same,cellular levels of GTP-Rac1 (Rac1 activation),[2],inhibit activation of GTP Rac1
same,gp91phox mRNA expression,[3],did not affect gp91^phox mRNA expression
same,mitochondrial ROS generation,[4],suppressed
